Reference: US20200079833A1 (AstraZeneca / MedImmune, published 2020)
Starred links: 1 amine or outer side, 2 acyl side, 3 side chain; linkers in the order of their positions; H or OH if unused. Non-standard residues stand in square brackets, D forms with d. Groups on a side chain read outwards from the residue. No end group written: not given here. *: point of attachment. γGlu = O=C(O)[C@H](CCC(=O)[*:2])N[*:1]; Palmitoyl = CCCCCCCCCCCCCCCC(=O)*; αMeF = C[C@](N)(Cc1ccccc1)C(=O)O; αMeK = C[C@](N)(CCCCN)C(=O)O; αMeS = C[C@](N)(CO)C(=O)O; Aib = CC(C)(N)C(=O)O

T1: glucose-dependent insulinotropic peptide (gastric inhibitory polypeptide) receptor (GIPR) (human, UniProt P48546 22-466)
T1 sequence (looked up): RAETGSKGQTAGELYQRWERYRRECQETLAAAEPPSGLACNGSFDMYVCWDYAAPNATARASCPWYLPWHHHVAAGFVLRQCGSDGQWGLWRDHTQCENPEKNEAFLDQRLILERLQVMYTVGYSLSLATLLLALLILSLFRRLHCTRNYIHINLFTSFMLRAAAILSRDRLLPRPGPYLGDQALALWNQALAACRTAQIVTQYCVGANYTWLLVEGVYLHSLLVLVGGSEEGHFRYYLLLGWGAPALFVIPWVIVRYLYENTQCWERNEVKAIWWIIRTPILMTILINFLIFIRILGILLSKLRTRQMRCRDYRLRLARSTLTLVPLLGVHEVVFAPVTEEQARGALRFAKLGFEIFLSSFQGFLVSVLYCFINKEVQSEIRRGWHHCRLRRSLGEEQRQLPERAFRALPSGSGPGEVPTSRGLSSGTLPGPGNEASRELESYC

B1: SEQ ID NO 88 (peptide)
peptide: HXEGSFTSDVSKFLEGEAAKEFIAFVVKGG
modifications: Aib 2; α-MeF 6, 13, 22, 25; α-MeS 11; α-MeK 20, 28; K(ε-γE-Palmitoyl) 12; C-terminal amide
B2: SEQ ID NO 83 (peptide)
peptide: H[Aib]EGS[αMeF]TSDV[αMeS]S[αMeF]LEGK([γGlu-Palmitoyl])AA[αMeK]E[αMeF]IA[αMeF]VV[αMeK]GG-NH2
modifications: N-terminus assumed
SMILES: CCCCCCCCCCCCCCCC(=O)N[C@@H](CCC(=O)NCCCC[C@H](NC(=O)CNC(=O)[C@H](CCC(=O)O)NC(=O)[C@H](CC(C)C)NC(=O)[C@](C)(Cc1ccccc1)NC(=O)[C@H](CO)NC(=O)[C@](C)(CO)NC(=O)[C@@H](NC(=O)[C@H](CC(=O)O)NC(=O)[C@H](CO)NC(=O)[C@@H](NC(=O)[C@](C)(Cc1ccccc1)NC(=O)[C@H](CO)NC(=O)CNC(=O)[C@H](CCC(=O)O)NC(=O)C(C)(C)NC(=O)[C@@H](N)Cc1c[nH]cn1)[C@@H](C)O)C(C)C)C(=O)N[C@@H](C)C(=O)N[C@@H](C)C(=O)N[C@@](C)(CCCCN)C(=O)N[C@@H](CCC(=O)O)C(=O)N[C@@](C)(Cc1ccccc1)C(=O)N[C@H](C(=O)N[C@@H](C)C(=O)N[C@@](C)(Cc1ccccc1)C(=O)N[C@H](C(=O)N[C@H](C(=O)N[C@@](C)(CCCCN)C(=O)NCC(=O)NCC(N)=O)C(C)C)C(C)C)[C@@H](C)CC)C(=O)O
B3: SEQ ID NO 85 (peptide)
peptide: H[Aib]EGS[αMeF]TSDV[αMeS]S[αMeF]LK([γGlu-Palmitoyl])GEAA[αMeK]E[αMeF]IA[αMeF]VV[αMeK]GG-NH2
modifications: N-terminus assumed
SMILES: CCCCCCCCCCCCCCCC(=O)N[C@@H](CCC(=O)NCCCC[C@H](NC(=O)[C@H](CC(C)C)NC(=O)[C@](C)(Cc1ccccc1)NC(=O)[C@H](CO)NC(=O)[C@](C)(CO)NC(=O)[C@@H](NC(=O)[C@H](CC(=O)O)NC(=O)[C@H](CO)NC(=O)[C@@H](NC(=O)[C@](C)(Cc1ccccc1)NC(=O)[C@H](CO)NC(=O)CNC(=O)[C@H](CCC(=O)O)NC(=O)C(C)(C)NC(=O)[C@@H](N)Cc1c[nH]cn1)[C@@H](C)O)C(C)C)C(=O)NCC(=O)N[C@@H](CCC(=O)O)C(=O)N[C@@H](C)C(=O)N[C@@H](C)C(=O)N[C@@](C)(CCCCN)C(=O)N[C@@H](CCC(=O)O)C(=O)N[C@@](C)(Cc1ccccc1)C(=O)N[C@H](C(=O)N[C@@H](C)C(=O)N[C@@](C)(Cc1ccccc1)C(=O)N[C@H](C(=O)N[C@H](C(=O)N[C@@](C)(CCCCN)C(=O)NCC(=O)NCC(N)=O)C(C)C)C(C)C)[C@@H](C)CC)C(=O)O
B4: SEQ ID NO 87 (peptide)
peptide: H[Aib]EGS[αMeF]TSDV[αMeS]SK([γGlu-Palmitoyl])LEGEAA[αMeK]E[αMeF]IA[αMeF]VV[αMeK]GG-NH2
modifications: N-terminus assumed
SMILES: CCCCCCCCCCCCCCCC(=O)N[C@@H](CCC(=O)NCCCC[C@H](NC(=O)[C@H](CO)NC(=O)[C@](C)(CO)NC(=O)[C@@H](NC(=O)[C@H](CC(=O)O)NC(=O)[C@H](CO)NC(=O)[C@@H](NC(=O)[C@](C)(Cc1ccccc1)NC(=O)[C@H](CO)NC(=O)CNC(=O)[C@H](CCC(=O)O)NC(=O)C(C)(C)NC(=O)[C@@H](N)Cc1c[nH]cn1)[C@@H](C)O)C(C)C)C(=O)N[C@@H](CC(C)C)C(=O)N[C@@H](CCC(=O)O)C(=O)NCC(=O)N[C@@H](CCC(=O)O)C(=O)N[C@@H](C)C(=O)N[C@@H](C)C(=O)N[C@@](C)(CCCCN)C(=O)N[C@@H](CCC(=O)O)C(=O)N[C@@](C)(Cc1ccccc1)C(=O)N[C@H](C(=O)N[C@@H](C)C(=O)N[C@@](C)(Cc1ccccc1)C(=O)N[C@H](C(=O)N[C@H](C(=O)N[C@@](C)(CCCCN)C(=O)NCC(=O)NCC(N)=O)C(C)C)C(C)C)[C@@H](C)CC)C(=O)O
B5: SEQ ID NO 84 (peptide)
peptide: H[Aib]EGS[αMeF]TSDV[αMeS]S[αMeF]LEK([γGlu-Palmitoyl])EAA[αMeK]E[αMeF]IA[αMeF]VV[αMeK]GG-NH2
modifications: N-terminus assumed
SMILES: CCCCCCCCCCCCCCCC(=O)N[C@@H](CCC(=O)NCCCC[C@H](NC(=O)[C@H](CCC(=O)O)NC(=O)[C@H](CC(C)C)NC(=O)[C@](C)(Cc1ccccc1)NC(=O)[C@H](CO)NC(=O)[C@](C)(CO)NC(=O)[C@@H](NC(=O)[C@H](CC(=O)O)NC(=O)[C@H](CO)NC(=O)[C@@H](NC(=O)[C@](C)(Cc1ccccc1)NC(=O)[C@H](CO)NC(=O)CNC(=O)[C@H](CCC(=O)O)NC(=O)C(C)(C)NC(=O)[C@@H](N)Cc1c[nH]cn1)[C@@H](C)O)C(C)C)C(=O)N[C@@H](CCC(=O)O)C(=O)N[C@@H](C)C(=O)N[C@@H](C)C(=O)N[C@@](C)(CCCCN)C(=O)N[C@@H](CCC(=O)O)C(=O)N[C@@](C)(Cc1ccccc1)C(=O)N[C@H](C(=O)N[C@@H](C)C(=O)N[C@@](C)(Cc1ccccc1)C(=O)N[C@H](C(=O)N[C@H](C(=O)N[C@@](C)(CCCCN)C(=O)NCC(=O)NCC(N)=O)C(C)C)C(C)C)[C@@H](C)CC)C(=O)O
B6: SEQ ID NO 89 (peptide)
peptide: H[Aib]EGS[αMeF]TSDVK([γGlu-Palmitoyl])S[αMeF]LEGEAA[αMeK]E[αMeF]IA[αMeF]VV[αMeK]GG-NH2
modifications: N-terminus assumed
SMILES: CCCCCCCCCCCCCCCC(=O)N[C@@H](CCC(=O)NCCCC[C@H](NC(=O)[C@@H](NC(=O)[C@H](CC(=O)O)NC(=O)[C@H](CO)NC(=O)[C@@H](NC(=O)[C@](C)(Cc1ccccc1)NC(=O)[C@H](CO)NC(=O)CNC(=O)[C@H](CCC(=O)O)NC(=O)C(C)(C)NC(=O)[C@@H](N)Cc1c[nH]cn1)[C@@H](C)O)C(C)C)C(=O)N[C@@H](CO)C(=O)N[C@@](C)(Cc1ccccc1)C(=O)N[C@@H](CC(C)C)C(=O)N[C@@H](CCC(=O)O)C(=O)NCC(=O)N[C@@H](CCC(=O)O)C(=O)N[C@@H](C)C(=O)N[C@@H](C)C(=O)N[C@@](C)(CCCCN)C(=O)N[C@@H](CCC(=O)O)C(=O)N[C@@](C)(Cc1ccccc1)C(=O)N[C@H](C(=O)N[C@@H](C)C(=O)N[C@@](C)(Cc1ccccc1)C(=O)N[C@H](C(=O)N[C@H](C(=O)N[C@@](C)(CCCCN)C(=O)NCC(=O)NCC(N)=O)C(C)C)C(C)C)[C@@H](C)CC)C(=O)O
B7: SEQ ID NO 86 (peptide)
peptide: H[Aib]EGS[αMeF]TSDV[αMeS]S[αMeF]K([γGlu-Palmitoyl])EGEAA[αMeK]E[αMeF]IA[αMeF]VV[αMeK]GG-NH2
modifications: N-terminus assumed
SMILES: CCCCCCCCCCCCCCCC(=O)N[C@@H](CCC(=O)NCCCC[C@H](NC(=O)[C@](C)(Cc1ccccc1)NC(=O)[C@H](CO)NC(=O)[C@](C)(CO)NC(=O)[C@@H](NC(=O)[C@H](CC(=O)O)NC(=O)[C@H](CO)NC(=O)[C@@H](NC(=O)[C@](C)(Cc1ccccc1)NC(=O)[C@H](CO)NC(=O)CNC(=O)[C@H](CCC(=O)O)NC(=O)C(C)(C)NC(=O)[C@@H](N)Cc1c[nH]cn1)[C@@H](C)O)C(C)C)C(=O)N[C@@H](CCC(=O)O)C(=O)NCC(=O)N[C@@H](CCC(=O)O)C(=O)N[C@@H](C)C(=O)N[C@@H](C)C(=O)N[C@@](C)(CCCCN)C(=O)N[C@@H](CCC(=O)O)C(=O)N[C@@](C)(Cc1ccccc1)C(=O)N[C@H](C(=O)N[C@@H](C)C(=O)N[C@@](C)(Cc1ccccc1)C(=O)N[C@H](C(=O)N[C@H](C(=O)N[C@@](C)(CCCCN)C(=O)NCC(=O)NCC(N)=O)C(C)C)C(C)C)[C@@H](C)CC)C(=O)O

biological target: GLP-1 receptor (GLP-1R) (human, UniProt P43220 24-463); assay: cell-based or functional assay

Row | cAMP Mean pM GLP-1R [pM] | cAMP Primary assay EC50 GLP-1R n1 [nM] | cAMP Primary assay EC50 GLP-1R n2 [nM] | Binder
1 | 5 | 0.0043 | 0.0057 | B1
2 | 3.6 | 0.0032 | 0.004 | B2
3 | 101 | 0.066 | 0.14 | B3
4 | 1.6 | 0.0016 | 0.0016 | B4
5 | 8 | 0.0078 | 0.0081 | B5
6 | 548 | 0.45 | 0.65 | B6
7 | 1.5 | 0.0013 | 0.0017 | B7

biological target: glucagon receptor (GCGR) (human, UniProt P47871 26-477); assay: cell-based or functional assay
Sequence (P47871 26-477): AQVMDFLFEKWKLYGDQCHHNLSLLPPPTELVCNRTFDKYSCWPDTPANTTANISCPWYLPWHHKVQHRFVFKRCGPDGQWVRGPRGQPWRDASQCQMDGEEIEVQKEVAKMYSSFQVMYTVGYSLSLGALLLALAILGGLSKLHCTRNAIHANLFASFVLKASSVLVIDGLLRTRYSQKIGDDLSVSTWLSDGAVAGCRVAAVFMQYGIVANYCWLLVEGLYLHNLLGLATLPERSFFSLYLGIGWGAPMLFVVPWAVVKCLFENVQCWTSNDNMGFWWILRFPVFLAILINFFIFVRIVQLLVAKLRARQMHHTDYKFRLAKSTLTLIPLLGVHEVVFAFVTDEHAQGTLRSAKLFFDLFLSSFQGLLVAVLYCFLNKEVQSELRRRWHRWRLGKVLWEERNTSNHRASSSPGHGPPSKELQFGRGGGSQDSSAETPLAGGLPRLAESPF

Row | cAMP Primary assay EC50 Gluc-R [nM] | cAMP Primary assay EC50 Gluc-R (2nd) [nM] | Binder
8 | 28 | 28 | B1
9 | 28 | 28 | B2
10 | 28 | 28 | B3
11 | 28 | 28 | B4
12 | 27 | 27 | B5
13 | 28 | 28 | B6
14 | 28 | 28 | B7

biological target: T1, glucose-dependent insulinotropic …; assay: cell-based or functional assay

Row | cAMP Primary assay EC50 GIP-R [nM] | cAMP Primary assay EC50 GIP-R (2nd) [nM] | Binder
15 | 28 | 28 | B1
16 | 28 | 28 | B2
17 | 28 | 28 | B3
18 | 28 | 28 | B4
19 | 27 | 27 | B5
20 | 28 | 28 | B6
21 | 28 | 28 | B7
